These results are taken from the supplement of paper PMC5998384.

The subject of series [1] is HeLa Kyoto. Description: solubility change mitosis vs G1/S (difference of NP-40 vs SDS log2 ratios) (log2 ratio difference); higher = more soluble in mitosis.
The subject of series [2] is HeLa Kyoto. Description: solubility in G1/S (NP-40 vs SDS abundance) (log2 ratio); higher = more soluble. The conditions noted are these: cell cycle stage: G1/S.
Series [3] has as its system HeLa Kyoto. Description: thermal stability score vs G1/S (z-score of summed log2 fold changes over temperatures); higher = more thermally stable than in G1/S.
The mark [4] stands for this setting: cell cycle stage: early G1 (4.5 h after nocodazole release).
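Wherever solubility change mitosis vs G1/S (difference of NP-40 vs SDS log2 ratios) is given: synchronized HeLa Kyoto cells (double thymidine block for G1/S, nocodazole release for mitosis), protein amounts in NP-40 versus SDS lysates quantified by mass spectrometry, three biological replicates.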
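Wherever solubility in G1/S (NP-40 vs SDS abundance) is given: HeLa Kyoto cells arrested at G1/S by double thymidine block, proteins quantified by TMT10plex mass spectrometry in mild NP-40 versus SDS extracts, three biological replicates.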
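Wherever thermal stability score vs G1/S (z-score of summed log2 fold changes over temperatures) is given: synchronized HeLa Kyoto cells, proteins quantified by TMT10plex mass spectrometry, three biological replicates, mitosis taken 0.5 h after nocodazole release, G1/S directly after double thymidine block.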

Sequence of KLF16 (chain, as listed by the source): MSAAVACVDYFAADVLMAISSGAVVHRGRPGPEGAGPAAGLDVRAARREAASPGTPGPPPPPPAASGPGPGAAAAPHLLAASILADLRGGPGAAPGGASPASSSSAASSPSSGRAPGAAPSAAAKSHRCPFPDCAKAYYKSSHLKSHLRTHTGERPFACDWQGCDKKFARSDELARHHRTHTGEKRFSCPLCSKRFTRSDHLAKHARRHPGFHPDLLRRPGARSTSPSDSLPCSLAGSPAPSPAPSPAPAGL

On to KLF16, for which the “solubility change mitosis (log2)” value in series [1] was 0.0196. Further, the “solubility in G1/S (log2)” value in series [2] came out at 0.106.
In the same order, the values of “MAAAADSFSGGPAGVRLPRSPPLKVLAEQLRRDAEGGPGAWRLSRAAAGRGPLDLAAVWMQGRVVMADRGEARLRDPSGDFSVRGLERVPRGRPCLVPGKYVMVMGVVQACSPEPCLQAVKMTDLSDNPIHESMWELEVEDLHRNIP [RMI2]” are 0.168 and 0.374.
As for “MAAAATAAEGVPSRGPPGEVIHLNVGGKRFSTSRQTLTWIPDSFFSSLLSGRISTLKDETGAIFIDRDPTVFAPILNFLRTKELDPRGVHGSSLLHEAQFYGLTPLVRRLQLREELDRSSCGNVLFNGYLPPPVFPVKRRNRHSLVGPQQLGGRPAPVRRSNTMPPNLGNAGLLGRMLDEKTPPSPSGQPEEPGMVRLVCGHHNWIAVAYTQFLVCYRLKEASGWQLVFSSPRLDWPIERLALTARVHGGALGEHDKMVAAATGSEILLWALQAEGGGSEIGVFHLGVPVEALFFVGNQLIATSHTGRIGVWNAVTKHWQVQEVQPITSYDAAGSFLLLGCNNGSIYYVDVQKFPLRMKDNDLLVSELYRDPAEDGVTALSVYLTPKTSDSGNWIEIAYGTSSGGVRVIVQHPETVGSGPQLFQTFTVHRSPVTKIMLSEKHLISVCADNNHVRTWSVTRFRGMISTQPGSTPLASFKILALESADGHGGCSAGNDIGPYGERDDQQVFIQKVVPSASQLFVRLSSTGQRVCSVRSVDGSPTTAFTVLECEGSRRLGSRPRRYLLTGQANGSLAMWDLTTAMDGLGQAPAGGLTEQELMEQLEHCELAPPAPSAPSWGCLPSPSPRISLTSLHSASSNTSLSGHRGSPSPPQAEARRRGGGSFVERCQELVRSGPDLRRPPTPAPWPSSGLGTPLTPPKMKLNETSF [SHKBP1]”, in series [1], the “solubility change mitosis (log2)” value is -0.00881. Also, the “solubility in G1/S (log2)” value in series [2] was -0.0414.
Turning to “MAAAEEGCSVGAEADRELEELLESALDDFDKAKPSPAPPSTTTAPDASGPQKRSPGDTAKDALFASQEKFFQELFDSELASQATAEFEKAMKELAEEEPHLVEQFQKLSEAAGRVGSDMTSQQEFTSCLKETLSGLAKNATDLQNSSMSEEELTKAMEGLGMDEGDGEGNILPIMQSIMQNLLSKDVLYPSLKEITEKYPEWLQSHRESLPPEQFEKYQEQHSVMCKICEQFEAETPTDSETTQKARFEMVLDLMQQLQDLGHPPKELAGEMPPGLNFDLDALNLSGPPGASGEQCLIM [PEX19]”, in series [1], the “solubility change mitosis (log2)” value is 0.402. In addition, the “solubility in G1/S (log2)” value in series [2] is -0.302.
The corresponding values for “MAAAFRKAAKSRQREHRERSQPGFRKHLGLLEKKKDYKLRADDYRKKQEYLKALRKKALEKNPDEFYYKMTRVKLQDGVHIIKETKEEVTPEQLKLMRTQDVKYIEMKRVAEAKKIERLKSELHLLDFQGKQQNKHVFFFDTKKEVEQFDVATHLQTAPELVDRVFNRPRIETLQKEKVKGVTNQTGLKRIAKERQKQYNCLTQRIEREKKLFVIAQKIQTRKDLMDKTQKVKVKKETVNSPAIYKFQSRRKR [UTP11L]” are 1.5 and -2.71.
Consider “MALSKRELDELKPWIEKTVKRVLGFSEPTVVTAALNCVGKGMDKKKAADHLKPFLDDSTLRFVDKLFEAVEEGRSSRHSKSSSDRSRKRELKEVFGDDSEISKESSGVKKRRIPRFEEVEEEPEVIPGPPSESPGMLTKLQIKQMMEAATRQIEERKKQLSFISPPTPQPKTPSSSQPERLPIGNTIQPSQAATFMNDAIEKARKAAELQARIQAQLALKPGLIGNANMVGLANLHAMGIAPPKVELKDQTKPTPLILDEQGRTVDATGKEIELTHRMPTLKANIRAVKREQFKQQLKEKPSEDMESNTFFDPRVSIAPSQRQRRTFKFHDKGKFEKIAQRLRTKAQLEKLQAEISQAARKTGIHTSTRLALIAPKKELKEGDIPEIEWWDSYIIPNGFDLTEENPKREDYFGITNLVEHPAQLNPPVDNDTPVTLGVYLTKKEQKKLRRQTRREAQKELQEKVRLGLMPPPEPKVRISNLMRVLGTEAVQDPTKVEAHVRAQMAKRQKAHEEANAARKLTAEQRKVKKIKKLKEDISQGVHISVYRVRNLSNPAKKFKIEANAGQLYLTGVVVLHKDVNVVVVEGGPKAQKKFKRLMLHRIKWDEQTSNTKGDDDEESDEEAVKKTNKCVLVWEGTAKDRSFGEMKFKQCPTENMAREHFKKHGAEHYWDLALSESVLESTD [PRPF3]”, for which the “solubility change mitosis (log2)” value in series [1] is 0.331. The thermal stability score came out at 0.798 in series [3] (setting [4]) and 3.15 in series [3] (cell cycle stage: mitosis).
The corresponding values for “MAQPGTLNLNNEVVKMRKEVKRIRVLVIRKLVRSVGRLKSKKGTEDALLKNQRRAQRLLEEIHAMKELKPDIVTKSALGDDINFEKIFKKPDSTATERAIARLAVHPLLKKKIDVLKAAVQAFKEARQNVAEVESSKNASEDNHSENTLYSNDNGSNLQREATVISEQKVKETKILAKKPIHNSKEKIAKMEHGPKAVTIANSPSKPSEKDSVVSLESQKTPADPKLKTLSQTKKNKGSDSSLSGNSDGGEEFCEEEKEYFDDSTEERFYKQSSMSEDSDSGDDFFIGKVRRTRKKESSCHSSVKEQKPLEKVFLKEDTGETHGDTRNDKIKPSTETRKLESVFFHSLSGSKSSRRNFKEQAPKTRSLDFPQNEPQIKNQFNKKLSGRLENTKQQLQLPLHPSWEASRRRKEQQSNIAVFQGKKITFDD [SRFBP1]” are 0.584, -0.14 and -0.669.
In the same order, the values of “MMCGAPSATQPATAETQHIADQVRSQLEEKENKKFPVFKAVSFKSQVVAGTNYFIKVHVGDEDFVHLRVFQSLPHENKPLTLSNYQTNKAKHDELTYF [CSTB]” are -0.077, -2.35 and -3.83.
In the case of “MSYGRPPPDVEGMTSLKVDNLTYRTSPDTLRRVFEKYGRVGDVYIPRDRYTKESRGFAFVRFHDKRDAEDAMDAMDGAVLDGRELRVQMARYGRPPDSHHSRRGPPPRRYGGGGYGRRSRSPRRRRRSRSRSRSRSRSRSRSRYSRSKSRSRTRSRSRSTSKSRSARRSKSKSSSVSRSRSRSRSRSRSRSPPPVSKRESKSRSRSKSPPKSPEEEGAVSS [SRSF2]”, the “solubility change mitosis (log2)” value in series [1] was 0.24. Also, the values for the thermal stability score in series [3] (setting [4]) and in series [3] (cell cycle stage: mitosis) were -2.71 and -5.51, respectively.
The corresponding values for “MTKDKNSPGLKKKSQSVDINAPGFNPLAGAGKQTPQASKPPAPKTPIIEEEQNNAANTQKHPSRRSELKRFYTIDTGQKKTLDKKDGRRMSFQKPKGTIEYTVESRDSLNSIALKFDTTPNELVQLNKLFSRAVVTGQVLYVPDPEYVSSVESSPSLSPVSPLSPTSSEAEFDKTTNPDVHPTEATPSSTFTGIRPARVVSSTSEEEEAFTEKFLKINCKYITSGKGTVSGVLLVTPNNIMFDPHKNDPLVQENGCEEYGIMCPMEEVMSAAMYKEILDSKIKESLPIDIDQLSGRDFCHSKKMTGSNTEEIDSRIRDAGNDSASTAPRSTEESLSEDVFTESELSPIREELVSSDELRQDKSSGASSESVQTVNQAEVESLTVKSESTGTPGHLRSDTEHSTNEVGTLCHKTDLNNLEMAIKEDQIADNFQGISGPKEDSTSIKGNSDQDSFLHENSLHQEESQKENMPCGETAEFKQKQSVNKGKQGKEQNQDSQTEAEELRKLWKTHTMQQTKQQRENIQQVSQKEAKHKITSADGHIESSALLKEKQRHRLHKFLCLRVGKPMRKTFVSQASATMQQYAQRDKKHEYWFAVPQERTDHLYAFFIQWSPEIYAEDTGEYTREPGFIVVKKIEESETIEDSSNQAAAREWEVVSVAEYHRRIDALNTEELRTLCRRLQITTREDINSKQVATVKADLESESFRPNLSDPSELLLPDQIEKLTKHLPPRTIGYPWTLVYGTGKHGTSLKTLYRTMTGLDTPVLMVIKDSDGQVFGALASEPLKVSDGFYGTGETFVFTFCPEFEVFKWTGDNMFFIKGDMDSLAFGGGGGEFALWLDGDLYHGRSHSCKTFGNRTLSKKEDFFIQDIEIWAFE [OXR1]” are -0.176, -0.363 and -2.03.
Regarding RPS29, in series [1], the “solubility change mitosis (log2)” value worked out at 0.655.
The same measure, in the same setting: as for SCFD1, the figure is -0.0937; as for SLIRP, 0.0681.
Turning to SNCA, the “solubility change mitosis (log2)” value in series [1] stood at 0.157.
STAM2: in series [1], the “solubility change mitosis (log2)” value was -0.173.
Consider SUPT6H, for which the “solubility change mitosis (log2)” value in series [1] was found to be 0.0526.
In the case of TFRC, the “solubility change mitosis (log2)” value in series [1] is -0.13.
On to TPRG1L, for which the “solubility change mitosis (log2)” value in series [1] was -0.205.
In the case of UBA52, the “solubility change mitosis (log2)” value in series [1] turned out to be 0.558.
VPS29: the “solubility change mitosis (log2)” value in series [1] was -0.224.
On the same count and under the same terms, as for WDR5, the figure is -0.102.
